The numbers were not newly measured in article PMC11631806, which cites them from elsewhere.

For orientation: pKa means the negative logarithm of the acid dissociation constant.

This data set concerns the target Cys32 (UniProt position 32, FSATWCGPCKM). The conditions noted are these: not stated (reduced dithiol form implied by thiol titration).

Regarding “Thioredoxin (cytosolic Trx, Trx1) (Homo sapiens (inferred; the article does not name the species for these values))”, the pKa was 6.3 ± 0.1.
